This is an account of results in patent US5508261, “Analogs of glycoprotein hormones having altered receptor binding specificity and activity and methods for preparing and using same” (University of Medicine & Dentistry of New Jersey, dated 1996).

Test [1] addresses T1, bovine testes FSH receptors (bovine, UniProt P35376). The test is described as follows: inhibition of 125I-hFSH binding to bovine testes FSH receptors. On the procedure: (§1) The concentrations of the analogs were determined by sandwich immunoassay using antibodies B105 and A113. The term "N.D." means not determined because concentrations of analog were not employed high enough to detect 50% inhibition.

The target of test [2] is T1, bovine testes FSH receptors. Kind of test: inhibition of 125I-hFSH binding to bovine testes FSH receptors (N.D. in Table 3).
Test [3] has as its target rat luteal ovarian LH receptors (rat, UniProt P16235). Kind of test: inhibition of 125I-hCG binding to rat luteal ovarian LH receptors. As for the experimental part:
as §1
An aliquot of the ligation mixture was taken and used to transform DH5-alpha strain E. coli. (obtained from Bethesda Research Laboratories, Gaithersburg, Md.). Plasmid DNAs from ampicillin-resistant DH5-alpha clones were screened by digestion with BglII (which is unique to vectors containing the cassette) and EcoRI (which cuts in the vector). Positive clones were identified by the presence of two fragments (approximately 0.8 Kbp and 2.9 Kbp). […] The remainder of the beta-subunit cDNA (encoding hCGβ amino acids 1–87) was restored by ligation of the 2.3 Kbp PvuI-PvuII fragment of this vector and the 2.9 Kbp PvuI-PvuII fragment from pSVL-hCG-beta'. […] After the DNA was subjected to a dideoxy sequencing procedure to confirm that it encoded "GT" (Table 1), the plasmid DNA was then cotransfected into COS-7 cells (obtained from the American Type Culture Collection) along with pSVL-hCG-alpha, a pSVL-based plasmid encoding the human glycoprotein hormone alpha-subunit (10, 21), using a DEAE-dextran procedure (10).

B1: recombinant hCG (ligand)
chain 1: not shown
chain 2: SKEPLRPRCRPINATLAVEKEGCPVCITVNITICAGYCPTMTRVLQGVLPALPQVVCNYRDVRFESIRLPGCPRGVNPVVSYAVALSCQCALCRRSTTDCGGPKDHPLTCDDPRFQDSSSSKAPPPSLPSPSRLPGPSDTPILPQ
Take B1: in test [1], the binding result is listed as “no binding”.

B2: Analog "D" (ligand)
chain 1: not shown
chain 2: SKEPLRPRCRPINATLAVEKEGCPVCITVNITICAGYCPTMTRVLQGVLPALPQVVCNYRDVRFESIRLPGCPRGVNPVVSYAVALSCQCALCDSDSTDCGGPKDHPLTCDDPRFQDSSSSKAPPPSLPSPSRLPGPSDTPILPQ
In the case of B2, the binding result in test [2] was “no binding”.

B3: Analog "GT" (ligand)
chain 1: not shown
chain 2: SKEPLRPRCRPINATLAVEKEGCPVCITVNITICAGYCPTMTRVLQGVLPALPQVVCNYRDVRFESIRLPGCPRGVNPVVSYAVALSCQCALCRRSTTDCIHEAIKTNYCTKPQKSY
Regarding B3, in test [3], the “activity relative to hCG (LH RECEPTORS; ratio of concentrations for 50% inhibition)” value was 0.33 relative to recombinant hCG. In addition, the binding result in test [2] is recorded as “no binding”.

B4: recombinant hFSH (ligand)
chain 1: not shown
chain 2: NSCELTNITIAIEKEECRFCISINITWCAGYCYTRDLVYKDPARPKIQKTCTFKELVYETVRVPGCAHHADSLYTYPVALQCHCGKCDSDSTDCTVRGLGPSYCSFGEMKE
Take B4: the binding result in test [3] is on record as “no binding”.

B5: Analog "Q" (ligand)
chain 1: not shown
chain 2: SKEPLRPRCRPINATLAVEKEGCPVCITVNITICAGYCPTMTRVLQGVLPALPQVVCNYRDVRFESIRLPGCPRGVNPVVSYAVALSCQCALCDSDSTDCGGPKDHPSYCSFGE
With B5, in test [3], the “activity relative to hCG (LH RECEPTORS; ratio of concentrations for 50% inhibition)” value is 0.15 relative to recombinant hCG. Besides, the binding result in test [1] was “no binding”.
